Experimental data published in paper PMC12041195.

Tests used:
Test in all cases: BLI
[1] = target: recombinant HA protein of A/Hong Kong/45/2019 (H3N2) (influenza A virus A/Hong Kong/45/2019 (H3N2))
[2] = target: recombinant HA protein of A/Beijing/262/1995 (H1N1) (influenza A virus A/Beijing/262/1995 (H1N1))
[3] = target: recombinant HA protein of A/Aichi/2/1968 (H3N2) (influenza A virus A/Aichi/2/1968 (H3N2)) (UniProt P03437)
[4] = target: recombinant HA protein of A/New Caledonia/20/1999 (H1N1) (influenza A virus A/New Caledonia/20/1999 (H1N1))

Substance | Kd [1] | Kd [2] | Kd [3] | Kd [4]
IgG-F045-092 (antibody) | 12500 pM | – | – | –
IgM-F045-092 (from UniProt P01591 23-159) (antibody) | < 1 pM | < 1 pM | < 1 pM | < 1 pM
